The source of these data is the NTF2 design screens of Basanta et al. (2020).

This data set can be described thus: protease stability score; higher = more stable; yeast display proteolysis, trypsin and chymotrypsin.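 Also: relative to predicted unfolded state with 0 unfolded-like and 1 meaning tenfold more protease.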
“SEEEELFRKLVNLFLRDVLTGDEESLIELMDPDVRVDINGRKNVGWEEVANTWKQMRIRDFEYREVEYYNGQARIHGVRDGNINGVDERTEIEISMSIVDGRLKHVRVHVR” returned a protease stability score of 2.09.

The sequence “SEEEELHDEHLKKIYTALLTGDFDTFRNMVDPHVRLDWNGVRLHGREVVVRTMIELGADHIEIKEVSFQGDKVDLHFREKVNGKEFRVRIEKQKFNGQWSISSEHQR” showed a protease stability score of 1.14.

With “SEEEELHEILLHLLLLMHTTGDEHLLRRLADPNARVDINGREWHGRDLMVKFLVEIRIHRTRIHDERDIDGRVHMETRVDGLWNGVRYTFDTRIHAVKVNGRWLLESYSVE”, the protease stability score stood at 1.21.

The sequence “SEEEELHRLLRERYIKNALTGNEKHLRRLADPNTRNNVNGRTHHGWDFYTDMISRLGADHVQIHDRHVDIQGEYIDVHLEVELNINGKHHRLDVRIIILKVDGKWTLHSFEML” registered a protease stability score of 0.553.

“SEEEELIEYILELWMHAYVTGDEDVVHEMADPNVRIQVGDKKFIGRKTFSETIHELLNRVDHFRLHIRDYKVINGKAIMHIELHYRVNGKDIHHHVDIDVHKINGRWIVKSIHYR” showed a protease stability score of 1.83.

For the sequence “SEEEELIHILERLIIEFRRTGNEEAWMNLMDPHAKVEIGDFDLIGRDEVSRWLHHLRIDDIHITLRRFRDIDGRVISYGEENIRVDFNGQHVEFRRRSILILFKVDGQWYIESIHVH”, the protease stability score came out at 0.959.

In turn, “SEEEELLEHAYRHLIHTILTGDERLIEEMLDPNVRISIGEYHSHGREEAIRDVHELGIKHSERLHLTHVDSQGNKVRLHVEFVTNVNGVRRHVTVTWHIIKVNGKWYIESWDHQ” yielded a protease stability score of 1.83.

Sequence “SEEEELLRRIMKRVIHEWLTGDEDSFKELADPNVRVENIVDGRNIEAVGRDEAEHVWRHFDKHLGVDHRELKEFHVFDGVIRVRMKLKIGDKEIEMHLKFIIIDGRFTRVHSHSV” registered a protease stability score of 1.31.

For the sequence “SEEEELLRRITDEMIESMLTGDEKYILENVDPNVRLHIGDKTYVGWETYEDHMRERLEKLGADHMKLEHKDHQGNYTLIEGNLSFNGRELEVRIKLIIVNGVLEQVEVRFD”, the protease stability score stood at 0.955.

The sequence “SEEEELLRRLFELFYKIWHTGDFRSLYENADPNTQLDVGDKRFHGMEVVIEALRQIWEKFGFKVELIDEHHVINGQINMDGLLDINGKKMKTHINLRLIDGVMKTIRIDIR” displayed a protease stability score of 0.049.

In the case of “SEEEELMKKAMNTILESLKTGDFHTLENLVDPTARSDINGVILHGRELMHHEWERLLRELGVDVWEINEIHLRYVDGVVRIDIDGKVIIGDKSRTVHLRIIAHKIDGRWHIHSISFEVR”, the protease stability score amounted to 1.83.

With “SEEEELNQKLLEEIIQILITGDWRALLELADPNVRSEVNGVELHGMETHARHLLEMLEKYPNIQVRIHHLEVQGEKIIIHGTIHFNGRDLRLTLVWHVVNGRWKEVRSELR”, the protease stability score was found to be 1.35.

Sequence “SEEEELQRQLIEEFIRNRLTGDEDRLLELMDPNVRVRVGEKHAHGREEAIKLWHDHLHHWRIRHLTLRDYRVIDGKIHLHGEIHGEYNGKEHHTRTTIIIVHIDGRLRSIRIEID” yielded a protease stability score of 2.12.

Turning to “SEEEELRHELAHRWLRAFETGNFHMLLELFDPNTYFEVGDKKFHGREEVSKLLEEIWEHIRFEHVKVREVRLQGDKLHIDGETDGRVNGRDEKRKVEFEVTVINGVIHSVIIRIK”, the protease stability score was 2.46.

“SEEEELSEIASRITIEILKTGDEHMLHELADPNARLDVNGVESHGRESVVKSFRMLGVKHWTLRDVKVVDGRVWIHGELHVDGKTRRLILIVEKINGRWVMEEIRIG”: the protease stability score is 0.817.

“SEEEELSHTMWRLWVHAVRTGDFRMLEHLADPHVRDVRNINGVTTRLVGREEWRRIVEEEIDKYPNMRVEFEDVRDVGNYVHAHTKSHYDGKTVDTRVELLVVDGRISDFKLHIE” registered a protease stability score of 1.08.

The sequence “SEEEELTEMVARVIVHSLLTGDEENLDHMLDPNVKIDNDIDGKEERLHGREDRRRVNEEWGWSNIHWIVRRIRTQGNKATVDGEIRFDGVTEHVRLIVILFNGKVHLVRLKHL” displayed a protease stability score of 0.77.

Consider “SEEEELTQELFERFHHVLRTGDWREMVHLADPNARNIFENRTIVGREDVSKILSELLQRVKGIRWHIESIHVQGDFLKLDYRMQVGDKSENVEIHYLKFNGKWILKSIRFE”, for which the protease stability score was determined as 1.32.

“SEEEELTRITEQLMIEHLRTGDWDELQHLLDPDARLHFNGREFIGREIVIKLKLEKLRDLGMTFRDFHIKSWDSQGDKIHLRVREEVEFNGKNIELDVEIIARKVDGKWFIEQIKVR”: the protease stability score turned out to be 1.1.

Take “SEEEELVKKATDHWKNVIKTGDEHTIKKLVDPSARIIINGQEHHGRHMIHTLIHLWGVDKIEVHLRHLHMQGDKLEIINEVRVNGQSSTLTTISTKINGVWQFEEVQLE”: the protease stability score was 0.902.

“SEEEELVREHIKRVIHSYETGDWKSFLELFDPNVRLRVGDKELHGRELFIHWLVRLIELLGINHFELILHDVELQGNKAHSDIHSNLTVGDKTEHRKVHLFNLKVNGRWRTQSEHIE” had a protease stability score of 1.36.

The sequence “SEEEELVRQWLERTTEALLTGDEEYVLHLADPRTRFDVGDKEIHGMEEFLKRHLQLRIHHMHWEVTEIRLIDGVARSTGTLEIIMQQGDKRFRVRIRSEVISEKIDGRWRLRSIKIH” had a protease stability score of 1.44.

“SEEEELWEELKELSEEWFETGDEDRLLEMADPHVKVVFNGKHEHGREALRLVLETMKRRFKNATYHPHTIELQGEKVFLKIKVRVGDKEQELEIILIIVDGRLKEIRIHIRIK”: the protease stability score came out at 2.62.

“SEEEELWKMVDHLVHEWLRTGDEDTFSHYADPHARSIVNGKELHGREEFSNLVHKLKEQYPNLTLTIDELRSVGDKITLHITEEFNGVRYDVRIYALKVNGKWLHRYVEVR” returned a protease stability score of 1.54.

Regarding “SEEEELWRLAEETSERIIRTGDFTRLEEMIDPDARMHIDGRTHHGRETISKILLHELTRIKNVKFEIKHKSSQGDWVDIDLILRFDGKTEHIRYYVYKINGQWFLHSIEYH”, the protease stability score came out at 1.19.

Turning to “SEEEEMAHRVLEILLYALRTGDEKWMRKLVDPNVRLHVNGVEFHGRDEYTKFLHEHINRFDHFHSLTVTEIRHQGDFIVLHTILNIQWDGRSTRIDIHIIVLKVNGRWLLHSSSIE”, the protease stability score was 1.25.

“SEEEEMARRFTDRLLHFTQTGDERLVHEFVDPNARDDVNGREFHGWRSIHDIMRRLGIDHIRIRHIEVQGDKVRSHWQYVFNGVILEVEINTEKVDGRWLIKSVTFK” had a protease stability score of 1.14.

“SEEEEMDRHYSNLWNHLMFTGDWHWLEKLVDPHTRTIVDGQERHGREEALKVLKEVLEILGADVIRIHEMRYQGEKSNLVIEIKQGDKRLRVVIEVVVIDGVMHSLDLEIRHE” gave a protease stability score of 0.795.

Sequence “SEEEEMIEKLIRLLVKAHETGDWDTEHELMDPHVRIDINGKEIIGREDWHEHVKRMGFKHSRVEIRIRHLTTQGEKIHIHGELRVIYDIDGRTIDRSTEVHYHLRKINGKWLITEIEIR” displayed a protease stability score of 1.69.

As for “SEEEEMLHHLSERMTRALRTGDWKTLFELLDPNVRYEQGDKELHGREEMVKHIRHAMERVKNIRIEFTHIDTRLIDGRIHVHIDGRDEFNGVRFKKHIIVHIDKIDGKWFTDNFRLIYE”, the protease stability score was determined as 1.15.

In turn, “SEEEEMLKHALEILTEVTDTGNWEEYEKLLDPDVRVHIGDKTLVGMEEILRYWMEYFKSLGVDHVETRVKEISHQGDKMHMDTTLRIHQGDKDLEFHVEIHAEKVNGRWFIKEINFE” returned a protease stability score of 1.75.

The sequence “SEEEEMLKIALRIMLHTIHTGDEDLFSELADPNVKIKIDGVELVGWEFAHEWMREHIEQVPNVKLKIHSVKTIDGRVDSDLIRIFDGVTHKIRLISHKINGRWLIETITVN” gave a protease stability score of 0.964.

As to “SEEEEMNEELIKIVLHSWKTGDEKHLEENFDPNVKLIVGDKRFIGREHLVKLIDHLIKRYPGLTIHLHDVKIQGNYVHLDTRAHFDGQTYNTRSHARKVDGRWYLTHSHIE”, the protease stability score stood at 0.125.

“SEEEEMTRLALEIFHRVYKTGDEDKYRDLADPHVRLVVGDKTFHGREHYLKFFRHIRIHHSHLDDFEIQGDKAILDTTIDVNINGKRHWIKTHVISVKVNGQWRLHSEELS” had a protease stability score of 0.178.

For “SEEEEMVKIADELIRRSWDTGDEDLFLHLADPNTRIFFNGRTVHGREEVEKMIRHMRIDHYELKRIDVYNGQVVIHGKIEITVNGVTKTHEVDIIIEKINGKWILRSIHHK”, the protease stability score was 1.11.

Consider “SEEEEMVKRLVEIIARMLETGDEDTLLELLDPEPRIEIGDKRFHGWEEFHKEEHKRLREMRVNSTHIEDVKVYNGRARIHLRIDGSIDGRRIEMRSHFIVQKINGRWSITSVIIR”, for which the protease stability score worked out at 1.52.

With “SEEEEMVKVALELLKHSLETGDERLMLRQIDPHAKFDVDGKEHHGRDVFREIEERVDVLHLDHVEIQHVHIQGNKLHIHLEMRSTFLFNGRTFHYRLHYEIIMFKFNGKWLITSLQLR”, the protease stability score worked out at 0.485.

Sequence “SEEEENAHKAMRFLEEVMKTGDEKSWLDLFDPDARIIIGDKHHIGWEHIHELMRRIDHIHDFHVHDVRSQGDKVFVDIKIDGIINGRRYRTRIEVIVRKFDGKWHIDHIQHN” returned a protease stability score of 1.2.

For “SEEEENARRAAEHHEHVLKTGDEDHMTRMFDPNVRVRQGDKEIHGREEFRRLFHELVRRYPNLKFELEDVDVFNGKVVVHMIFWVDGRTIEIHWFIDKFDGQWVVEEVEFR”, the protease stability score came out at 1.19.

The sequence “SEEEENIEHSLRIMNENLETGDEHSLAELFDPNAKIDIGDKHLHGRETLITHLVLLGIKHSSIINREYHMIGEWAHINGDLRIEIGDKERHHDVRILSRKIDGRWVVTEFHIR” had a protease stability score of 1.19.

“SEEEENILIAYRLIMHSVNTGDESSLLELIDPDYRLDVNGVDIHGREEWYRDQKERFRDAGFKHTEFRFRDLRVQGDKVFLDVEITWHVDGKTIRHRVTMIVLKVNGRWLVESFKVK”: the protease stability score stood at 1.48.

“SEEEENSRLLVELYFRWLVTGNEEVHNKYLDPNMRLEIRIGDKTIETHGREEILRAMREWRIRHVELKDRHVQGDKAHIEGTIIIEFDGRDIERHLNIIIVVINGRIHEIQLHVR” gave a protease stability score of 2.79.

Sequence “SEEEENSRRVLELFRRIFETGDEDTSRRLADPDARVEVGEFHSIGRESFARMLHHLWRELRWKDEKIEHIEVQGDKVHVNGINFVIYNGKEINLTVHLEMQKVDGRWHIHHFKIE” returned a protease stability score of 1.67.

With “SEEEEQAKEAVRHFIHKWQTGDEDRLKELLDPHTKIDIGDKHIHGREEATKLIRNELHRIKNIRVELRDIEVRVYDGVIELHIRGLEKYNGQEVHVTIILIFRKINGQWIIQSEHFHID”, the protease stability score came to 1.31.

As for “SEEEEQAKRVIDHVTRAIHTGDEDVLRRQFDPHVKIEVGDKDIHGWETMYEILTHIRIETESDVKDFKVQGDKLIMDVRLRFTIRIDGVEIHRQTTTNIIVHKVNGRWQMKKVEIR”, the protease stability score worked out at 0.409.

As to “SEEEEQFKKVFEIVIRFIITGDEHSMLKNADPNARLEIGDKEVIGMENLLERLTRIIDQFKNVRIEFHVKDHDLQGDKLHLETEIVLKFDGRELRIILHIVWTKINGRWIITSLSER”, the protease stability score came out at 1.17.

On to “SEEEEQLIRMADVFLHLFLTGDEDTLRSLFDPNAKLDINGVHSVGRENVKKAKEEWENKLGVNHHRLHEIRVVNGRTDLDGEVEWDGKRQRVRLVLVLINGRIRHEKIIFE”, for which the protease stability score was found to be 1.03.
